Columns and labels:
[1] = biological target: T1, human LAIR-1 expressed on cells (293T cells overexpressing human LAIR-1; leukemic cells) (human, UniProt Q6GTX8 22-287); experiment: cell binding, human LAIR-1 cells (FIG. 20A)
T1 construct: also called human LAIR-1 cells
T1 chain: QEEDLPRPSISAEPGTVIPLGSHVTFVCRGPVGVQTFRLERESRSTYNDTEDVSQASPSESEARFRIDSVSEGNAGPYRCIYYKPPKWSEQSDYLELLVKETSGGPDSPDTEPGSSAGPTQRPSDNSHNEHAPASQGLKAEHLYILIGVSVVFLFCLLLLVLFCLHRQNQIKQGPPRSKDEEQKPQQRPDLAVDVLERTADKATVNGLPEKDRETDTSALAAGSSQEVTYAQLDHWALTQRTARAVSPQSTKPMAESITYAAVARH

[2] = biological target: human LAIR-1 fused to the zeta chain of CD3, on UT-140 reporter cells (human, UniProt P20963 31-164); experiment: cell-based or functional assay
[3] = biological target: T2, LAIR-1 (human; form used for the KD not stated) (human, UniProt Q6GTX8 22-165, limits assumed); experiment: method not stated (in vitro activity listed in the legend of FIG. 20)
T2 construct: also called Leukocyte Associated Immunoglobulin Like Receptor 1
T2 chain: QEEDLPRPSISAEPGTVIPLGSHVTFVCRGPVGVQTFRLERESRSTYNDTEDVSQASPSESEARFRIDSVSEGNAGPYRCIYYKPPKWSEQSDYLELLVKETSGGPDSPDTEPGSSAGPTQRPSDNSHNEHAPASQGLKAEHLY

B1: h11B3 LAIR-1 mAb, Anti-LAIR-1 Variant 6 (h11B3 VL-2 / h11B3 VH-3) (antibody, V domains shown)
VH: EVQLVESGGGLVQPGGSLKLSCAASGFTFNTNAMYWVRQAPGKGLEWVGRIRSKSSNYATYYAASVKGRFTISRDDSKNTLYLQMNSLKTEDTAVYYCVRGGSGFFAYWGQGTLVTVSS
VL: DIQMTQSPSSLSASLGDRVTITCKASEDIYIRLAWYQQKPGKAPRLLISTATSLETGVPSRFSGSGSGTDYTFTISSLQPEDIATYYCQQYWSTPYTFGGGTRLEIK
notes: In the MV4-11 staining the mAb was AF647-conjugated; also called h11B3v6; humanized 11B3 LAIR-1 mAbs
Question: What does the source list for B1?
Answer: EC50 [1]: 0.15 nM; blocks signaling IC50 [2]: 0.25 nM; Kd [3]: 2.1 nM
